Laboratory results from patent US20140356364A1 (AMPLIMMUNE, published 2014).

T1: human B7-H4Ig (B7-H4hIg) (human, UniProt Q7Z7D3 25-259)
T1 construct: also called B7-H4Ig construct; not shown: Ig (Fc) part of the 'hIg' construct
T1 sequence: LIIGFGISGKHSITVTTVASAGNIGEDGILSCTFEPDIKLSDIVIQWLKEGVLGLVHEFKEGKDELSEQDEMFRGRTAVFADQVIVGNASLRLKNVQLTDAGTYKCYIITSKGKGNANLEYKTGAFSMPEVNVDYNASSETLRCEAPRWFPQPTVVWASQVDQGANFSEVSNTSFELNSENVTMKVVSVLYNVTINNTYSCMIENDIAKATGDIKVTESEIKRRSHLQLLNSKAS

T2: human B7-H4 expressed on the surface of stably transfected HEK293 cells (human, UniProt Q7Z7D3 25-282)
T2 construct: also called 293T.B7-H4 cells; human B7-H4 arrayed on the surface of a live cell
T2 sequence: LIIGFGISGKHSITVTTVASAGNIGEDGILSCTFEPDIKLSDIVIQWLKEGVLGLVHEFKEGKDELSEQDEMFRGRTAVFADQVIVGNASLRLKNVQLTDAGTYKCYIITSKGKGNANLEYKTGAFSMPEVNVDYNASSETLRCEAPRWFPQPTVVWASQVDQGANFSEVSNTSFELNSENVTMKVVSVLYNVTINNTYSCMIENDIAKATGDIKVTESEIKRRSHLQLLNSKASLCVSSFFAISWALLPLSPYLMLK

T3: B7-DChIg construct (extracellular domain of human DC linked to the hinge and Fc region of a human IgG1) (human, UniProt Q9BQ51 20-220)
T3 construct: extracellular domain; Specificity control antigen in the plate-based assay; not shown: human IgG1 hinge and Fc region
T3 sequence (looked up): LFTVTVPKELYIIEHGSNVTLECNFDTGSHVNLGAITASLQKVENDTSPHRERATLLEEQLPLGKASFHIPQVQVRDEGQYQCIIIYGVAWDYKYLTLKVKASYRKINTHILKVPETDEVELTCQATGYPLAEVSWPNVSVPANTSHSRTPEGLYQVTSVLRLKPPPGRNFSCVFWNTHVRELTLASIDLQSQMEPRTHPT

T4: Human B7-H4 protein antigen (coated on ELISA plates) (human, UniProt Q7Z7D3 25-259, limits assumed)
T4 construct: also called B7-H4 antigen; human B7-H4 antigen
T4 sequence: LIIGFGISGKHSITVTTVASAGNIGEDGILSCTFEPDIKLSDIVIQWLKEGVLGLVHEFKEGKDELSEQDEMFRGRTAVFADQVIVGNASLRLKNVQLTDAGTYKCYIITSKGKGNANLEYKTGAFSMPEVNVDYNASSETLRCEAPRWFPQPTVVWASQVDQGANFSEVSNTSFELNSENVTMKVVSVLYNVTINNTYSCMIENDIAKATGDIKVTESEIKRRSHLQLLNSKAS


Columns and labels:
human B7-H4Ig (B7-H4hIg) = target: T1, human B7-H4Ig (B7-H4hIg); experiment: plate-based ELISA, hybridoma supernatant on coated B7-H4hIg
Protocol: (§1) Serial dilutions were made from H74 (a commercially available anti-B7-H4 antibody), 2D1, 2E11 and 2H9 stock solutions and added to 96-well ELISA plates coated with B7-H4hIg or B7-DChIg. After incubation and wash, horseradish peroxidase (HRP) conjugated anti-mouse IgG antibody was added to the plates. After incubation and wash, 3,3′,5,5′-Tetramethylbenzidine (TMB) substrate was added. The colorimetric development was stopped by H₂SO₄ stop solution and read with a plate reader measuring absorbance at a 450 nm wavelength.
(§2) A plate-based binding assay using the B7-H4hIg construct was employed to capture the elicited antibody; antibodies were then characterized as being either IgG or IgM. As a specificity control, antibodies were also subjected to capture with a B7-DChIg construct (comprising the extracellular domain (ECD) of human DC linked to the hinge and Fc region of a human IgG1) (“B7-DChIg”) and the extent of IgG capable of binding was measured.

[1] = target: T2, human B7-H4 expressed on the surface of …; experiment: flow cytometry, hybridoma supernatant on HEK293 cells expressing human B7-H4, APC anti-mouse detection
Protocol: Antibodies 2D1, 2E11 and 2H9 were used either un-diluted (Neat), or diluted at 1:3, 1:9 and 1:27, to stain 293T.B7-H4 cells. For binding detection, APC labeled anti-mouse IgG antibody was utilized followed by FACS analysis of APC positive cells. H74 (a commercially available anti-B7-H4 antibody) at 1 μg/mL was used as positive control. Negative control was 1 μg/mL of mIgG1. 293T.B7-H4 cells incubated with APC labeled anti-mouse IgG antibody (DAM APC only), and parent 293 T cells stained with un-diluted 2D1 (Neat [293T]) further served as negative binding controls.
Neat and diluted hybridoma supernatants were then tested for the ability of their antibodies to bind to such cells or to control […] HEK293 cells. After washing, bound antibody was detected with allophycocyanin (APC)-conjugated, anti-mouse antibodies and the mean fluorescent intensity of the cells was determined (FIG. 3).

[2] = target: T3, B7-DChIg construct (extracellular …); experiment: plate-based ELISA, hybridoma supernatant on coated B7-DChIg
Protocol: as §1, §2

[3] = target: T4, Human B7-H4 protein antigen (coated on …); experiment: ELISA, conditioned medium on coated human B7-H4 antigen, anti-Fc-HRP/TMB
[4] = target: T4, Human B7-H4 protein antigen (coated on …); experiment: ELISA, conditioned medium on coated human B7-H4 antigen, anti-Fc-HRP, OD650
Protocol: Human B7-H4 protein antigen and control antigen were coated onto 96-well ELISA plates. The plates are then blocked with 3% BSA, and washed in PBS.
The conditioned media (4 days post transfection) were then tested for antigen binding in the 96-well ELISA. Anti-Fc-HRP was used as the detecting antibody. Plates were washed with PBS, and TMB (3,3′,5,5′-tetramethylbenzidine) was added for HRP color reaction. Once color developed, the OD₆₅₀ in each well was determined on an absorbance microplate reader.

Binder | binding result [2] | OD650 [3] [OD650] | also measured
anti-human B7-H4 antibody 2E11 (murine hybridoma clone) (antibody, IgG1, V domains shown, Mouse hybridoma antibody tested as hybridoma supernatant; IgG1-producing clone; also called Anti-Human B7-H4 Clone 2E11) VH: EVKLVESEGGLVQPGSSMKLSCTASGFKFTDYYMAWVRQVPEKGLEWVANINYDGSSTYYLDSLKSRFIISRDNAKNILYLQMNSLKSEDTATYYCARKGYFDYWGQGTTLTVSS VL: DIVMSQSPSSLAVSVGEKVTVSCKSSQSLLYSTNQRTYLAWFQQKPGQSPKLLIYWASTRESGVPDRFTGSGSGTDFTLTISSVKAEDLAVYYCQQYYNYPLTFGTGTKLELK | no binding | – | binding result (human B7-H4Ig (B7-H4hIg)): binds; binding result [1]: binds
anti-human B7-H4 antibody 2H9 (murine hybridoma clone) (antibody, IgG1, V domains shown, Mouse hybridoma antibody tested as hybridoma supernatant; IgG1-producing clone; also called Anti-Human B7-H4 Clone 2H9) VH: EVQLVESGGNLVKPGGSLKLSCAASGFTFSNSAMSWVRQTPEKRLEWVATISDGGRYTYYPDNVKGRFTISRDNAKNNLYLQMSHLKSEDTALYYCARDRPHWYFDVWGTGATVTVSS VL: DIVLTQSPASLAVSLGQRATISCRASESIDNYGISFMHWYQQKPGQPPKLLIYRASNLESGIPARFSGSGSRTDFTLTINPVETDDVATYFCQQSDEGRTFGGGTKLEIK | no binding | – | –
anti-human B7-H4 antibody 2D1 (murine hybridoma clone) (antibody, IgG2, V domains shown, Mouse hybridoma antibody tested as hybridoma supernatant; also called Anti-Human B7-H4 Clone 2D1) VH: EVQLVESGGGLVKPGGSLKLSCAASGFTFNSHGMSWVRQTPEKRLDWVATISDGGTYTYYPVNVKGRFTISRDNAKNNLYLQMSHLKSEDTAMYYCARDGGGGAYWGQGTLVTVSA VL: DVVMTQTPLSLPVSLGDQASISCRSSHSLVHSNGNTYLHWYLQKPGQSPNLLIYIVSNRFSGVPDRFSGSGSGTDFTLKISRVEAEDLGVYFCSQSTHVPPTFGAGTKLELK | no binding | – | –
recombinant antibody of 2H9 heavy chain and 2D1 light chain (human IgG4 S228P) (antibody, V domains shown, Mixed-chain combination tested as CHO conditioned medium; also called 2H9 HC + 2D1 LC) VH: EVQLVESGGNLVKPGGSLKLSCAASGFTFSNSAMSWVRQTPEKRLEWVATISDGGRYTYYPDNVKGRFTISRDNAKNNLYLQMSHLKSEDTALYYCARDRPHWYFDVWGTGATVTVSS VL: DVVMTQTPLSLPVSLGDQASISCRSSHSLVHSNGNTYLHWYLQKPGQSPNLLIYIVSNRFSGVPDRFSGSGSGTDFTLKISRVEAEDLGVYFCSQSTHVPPTFGAGTKLELKR | – | 0.02 | binding result [4]: no binding
recombinant antibody of 2D1 heavy chain and 2H9 light chain (human IgG4 S228P) (antibody, V domains shown, Mixed-chain combination tested as CHO conditioned medium; also called 2D1 HC + 2H9 LC) VH: EVQLVESGGGLVKPGGSLKLSCAASGFTFNSHGMSWVRQTPEKRLDWVATISDGGTYTYYPVNVKGRFTISRDNAKNNLYLQMSHLKSEDTAMYYCARDGGGGAYWGQGTLVTVSA VL: DIVLTQSPASLAVSLGQRATISCRASESIDNYGISFMHWYQQKPGQPPKLLIYRASNLESGIPARFSGSGSRTDFTLTINPVETDDVATYFCQQSDEGRTFGGGTKLEIKR | – | 0.06 | binding result [4]: no binding

More lines, main results first:

binding result [2] | OD650 [3] [OD650] | Binder | also measured
– | 1.15 | recombinant chimeric anti-B7-H4 antibody 2H9 (2H9 heavy chain / 2H9 light chain, human IgG4 S228P) (antibody, V domains shown, tested as CHO conditioned medium; also called 2H9 HC + 2H9 LC) VH: EVQLVESGGNLVKPGGSLKLSCAASGFTFSNSAMSWVRQTPEKRLEWVATISDGGRYTYYPDNVKGRFTISRDNAKNNLYLQMSHLKSEDTALYYCARDRPHWYFDVWGTGATVTVSS VL: DIVLTQSPASLAVSLGQRATISCRASESIDNYGISFMHWYQQKPGQPPKLLIYRASNLESGIPARFSGSGSRTDFTLTINPVETDDVATYFCQQSDEGRTFGGGTKLEIKR | –
– | 1.12 | recombinant chimeric anti-B7-H4 antibody 2D1 (2D1 heavy chain / 2D1 light chain, human IgG4 S228P) (antibody, V domains shown, tested as CHO conditioned medium; also called 2D1 HC + 2D1 LC) VH: EVQLVESGGGLVKPGGSLKLSCAASGFTFNSHGMSWVRQTPEKRLDWVATISDGGTYTYYPVNVKGRFTISRDNAKNNLYLQMSHLKSEDTAMYYCARDGGGGAYWGQGTLVTVSA VL: DVVMTQTPLSLPVSLGDQASISCRSSHSLVHSNGNTYLHWYLQKPGQSPNLLIYIVSNRFSGVPDRFSGSGSGTDFTLKISRVEAEDLGVYFCSQSTHVPPTFGAGTKLELKR | –
